In US20180326053A1 (OKLAHOMA MEDICAL RESEARCH FOUNDATION, published 2018):

T1: human activated Protein C (human, Light chain (chain 1): the Gla domain holds gamma-carboxyglutamates, from memory at pos 6, 7, 14, 16, 19, 20, 25, 26 and 29, written E. Pos 71 is beta-hydroxy-Asp, written D. N-glycans are present. …)
T1 construct: also called aPC; APC
T1 light: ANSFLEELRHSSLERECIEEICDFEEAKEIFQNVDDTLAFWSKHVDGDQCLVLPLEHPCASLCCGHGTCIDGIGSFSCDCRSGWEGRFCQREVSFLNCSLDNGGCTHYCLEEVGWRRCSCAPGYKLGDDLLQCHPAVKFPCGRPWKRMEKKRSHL
T1 heavy: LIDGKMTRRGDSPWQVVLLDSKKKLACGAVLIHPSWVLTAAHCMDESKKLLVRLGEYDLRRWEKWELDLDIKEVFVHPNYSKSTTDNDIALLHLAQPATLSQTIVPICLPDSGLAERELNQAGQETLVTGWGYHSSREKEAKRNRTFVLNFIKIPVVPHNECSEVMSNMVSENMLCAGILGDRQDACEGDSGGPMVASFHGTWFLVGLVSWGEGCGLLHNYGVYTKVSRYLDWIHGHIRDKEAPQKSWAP


Legend:
[1] = biological target: T2, human Protein C (unactivated, zymogen) (human, UniProt P04070 43-461); assay: ELISA, plate coated with human PC, IgG titrated (PC-ELISA)
T2 construct: mature; also called PC; hPC
Protocol: (§1) Plates (Nunc, cat#442404) were coated with 100 μl of human aPC (1 μg/ml) or hPC (2 μg/ml) diluted in DPBS (Gibco, cat#14040) overnight (o/n) at 4° C. After washing, the ELISA plate was blocked with 200 μl MPBST for 1 hr at RT, and tapped dry on a stack of paper towels. To each well 100 μl of IgG to be tested was added, and incubated for 1 hr at RT (for EC₅₀ determinations 1:3 dilutions were performed starting at 20 nM). Plates were washed 5× with PBST. 100 μl of anti-hIgG Fc-HRP (Sigma, cat#A0170) diluted 1:10,000 in PBST was added to each well. Plates were washed and 100 μl/well of TMB substrate was added and incubated at room temperature for 5 min. 100 μl/well of 1 N HCl was added to terminate the reaction. The plate was read with an ELISA plate reader (Biotek, Elx405) at 450 nm wavelength.

[2] = biological target: T1, human activated Protein C; assay: aPC-ELISA, human aPC coated, IgG titrated
Protocol: as §1

[3] = biological target: T1, human activated Protein C; assay: SPR, human aPC
[4] = biological target: T2, human Protein C (unactivated, zymogen); assay: PC-ELISA, hPC coated
Protocol: as §1

[5] = biological target: T1, human activated Protein C; assay: Biacore (SPR)

| Binder | binding result [1] | EC50 [2] | Kd [3] | binding result [4] | Kd [5] |
| --- | --- | --- | --- | --- | --- |
| TPP-3656 (HU1573-V3-hIgG2Kappa) (antibody, V domains shown, also called TPP-3656 VK7-3) VH: EVQLVESGGGLVQPGGSLRLSCAASGFTFSNYYLNWVRQAPGKGLEWVGDIRLKSNNYEKHYAESVKGRFTISRDDSKNSLYLQMNSLKTEDTAVYYCAREGDYFDYWGQGTLVTVSS VL: DIVLTQSPASLAVSPGQRATITCKASESVDSFGATFMHWYQQKPGQPPKLLIYLASNLESGVPARFSGSGSGTDFTLTINPVEANDTANYYCQQNNEDPYTFGQGTKLEIKR | no binding (tested: 10 µM (log M -5)) | 0.67 nM |  |  |  |
| TPP-3657 (HU1573-V2-hIgG2Kappa) (antibody, V domains shown, also called TPP-3657 VK7-3) VH: EVQLVESGGGLVQPGGSLRLSCAASGFTFSNYYLNWVRQAPGKGLEWVADIKSNNYEKHYAESVKGRFTISRDNAKNSLYLQMNSLRAEDTAVYYCAREGDYFDYWGQGTLVTVSS VL: DIVLTQSPASLAVSPGQRATITCKASESVDSFGATFMHWYQQKPGQPPKLLIYLASNLESGVPARFSGSGSGTDFTLTINPVEANDTANYYCQQNNEDPYTFGQGTKLEIKR | no binding (tested: 10 µM (log M -5)) | 0.43 nM |  |  |  |
| TPP-3356 (H1573VK2-VH1Cgl1-hIgG2Kappa) (antibody, V domains shown, also called TPP-3356 VK2D-29) VH: EVQLVESGGGLVQPGGSLRLSCAASGFTFSNYYLNWVRQAPGKGLEWVADIRLKSNNYEKHYAESVKGRFTISRDDSKNSLYLQMNSLKTEDTAVYYCIREGDYFDYWGQGTTVTVSS VL: DIVMTQTPLSLSVTPGQPASISCKASESVDSFGATFMHWYLQKPGQPPQLLIYLASNLESGVPDRFSGSGSGTDFTLKISRVEAEDVGVYYCQQNNEDPYTFGQGTKLEIKR |  | 0.5 nM | 13.6 nM | no binding (tested: up to 10 µM) |  |
| TPP-3357 (H1573Vk2A-VH1Cgl2-hIgG2Kappa) (antibody, V domains shown) VH: EVQLVESGGGLVQPGGSLRLSCAASGFTFSSYYMNWVRQAPGKGLEWVSDIRLKSNNYEKHYADSVKGRFTISRDNAKNSLYLQMNSLRAEDTAVYYCAREGDYFDYWGQGTLVTVSS VL: DIVLTQTPLSLSVTPGQPASISCRASESVDSFGATFMHWYLQKPGQPPQLLIYLASNLESGVPDRFSGSGSGTDFTLKISRVEAEDVGVYYCQQNNEDPYTFGQGTKLEIKR |  |  | 23.4 nM |  |  |
| TPP-3658 (HU1573-V1-hIgG2Kappa) (antibody, V domains shown, also called TPP-3658 VK7-3) VH: EVQLVESGGGLVQPGGSLRLSCAASGFTFSNYYLNWVRQAPGKGLEWVADIRLKSNNYEKHYAESVKGRFTISRDDSKNSLYLQMNSLKTEDTAVYYCIREGDYFDYWGQGTTVTVSS VL: DIVLTQSPASLAVSPGQRATITCKASESVDSFGATFMHWYQQKPGQPPKLLIYLASNLESGVPARFSGSGSGTDFTLTINPVEANDTANYYCQQNNEDPYTFGQGTKLEIKR | no binding (tested: 10 µM (log M -5)) | 0.65 nM |  |  |  |
| TPP-4885 (BAY1896502) (antibody, human IgG2, kappa, V domains shown, TPP-3656 with the N85D mutation in the light chain; IgG2/kappa like TPP-3656; also called type II ab BAY1896502) VH: EVQLVESGGGLVQPGGSLRLSCAASGFTFSNYYLNWVRQAPGKGLEWVGDIRLKSNNYEKHYAESVKGRFTISRDDSKNSLYLQMNSLKTEDTAVYYCAREGDYFDYWGQGTLVTVSS VL: DIVLTQSPASLAVSPGQRATITCKASESVDSFGATFMHWYQQKPGQPPKLLIYLASNLESGVPARFSGSGSGTDFTLTINPVEADDTANYYCQQNNEDPYTFGQGTKLEIKR |  |  |  |  | 14 nM |
| TPP-3639 (HU1573-V4-hIgG2Kappa) (antibody, V domains shown, also called TPP-3639 VK7-3) VH: EVQLVESGGGLVQPGGSLRLSCAASGFTFSSYYMNWVRQAPGKGLEWVADIRLKSNNYEKHYADSVKGRFTISRDNAKNSLYLQMNSLRAEDTAVYYCAREGDYFDYWGQGTLVTVSS VL: DIVLTQSPASLAVSPGQRATITCRASESVDSFGATFMHWYQQKPGQPPKLLIYLASNLESGVPARFSGSGSGTDFTLTINPVEANDTANYYCQQNNEDPYTFGQGTKLEIKR |  | 0.42 nM |  | no binding |  |
